Laboratory results: the supplement of paper PMC9732359
± gives the uncertainty stated by the source.

Assay: protein stability index of a GFP-peptide fusion (yeast GPS) (PSI 1-4); higher = more stable; sorted into four equal gates, so the index is relative within each strain
Method in brief: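 Tiled 17-residue peptides from yeast proteins were fused downstream of GFP on a plasmid that also expresses Cherry, and the pooled library was carried in yeast. Mid-log cultures grown in leucine-free medium were sorted into four equal gates by GFP/Cherry fluorescence ratio. Plasmids from each gate were PCR-amplified and Illumina-sequenced, and reads were assigned to strains by barcodes. Each peptide's protein stability index is the sum, over gates, of the gate's read frequency multiplied by its gate number.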

Sequence	protein stability index (doa10∆)	protein stability index (pdr5∆)	protein stability index (san1∆)	protein stability index (ubr1∆)
NHITEFPSIPLPINGPI [RPC31]	2.06 ± 0.05	2.24 ± 0.048	2.08 ± 0.07	1.94 ± 0.051
ELAQDPQTMEHYKQQIA [YCS4]	2.31 ± 0.055	2.65 ± 0.077	2.1 ± 0.1	2.4 ± 0.06
LQGQMEKIMILLVPLAL [CSN12]	1.84 ± 0.048	1.63 ± 0.04	1.3 ± 0.074	1.52 ± 0.045
RVSKDKKSGSLTFNSKN [FAS2]	3.34 ± 0.084	3.26 ± 0.072	3.23 ± 0.092	3.18 ± 0.074
QQVPPLPDELTLSYDDI [DLS1]	2.56 ± 0.045	2.83 ± 0.055	2.69 ± 0.05	2.74 ± 0.039
QFTKVIDEPIKSIMDGI [FAS1]	1.86 ± 0.047	2.27 ± 0.078	2.54 ± 0.16	1.49 ± 0.072
DSSAHFKGALTIKILPE [YMR129W/POM152]	2.67 ± 0.076	2.62 ± 0.064	2.37 ± 0.058	2.49 ± 0.042
CHLYSQRMHAIHEIDER [NNF1]	1.24 ± 0.082	1.64 ± 0.065	1.8 ± 0.1	1.63 ± 0.073
DEKKDSDSSKPAFSFGT [YJL041W/NSP1]	2.75 ± 0.076	2.49 ± 0.068	3.07 ± 0.067	2.97 ± 0.042
PYLVANVVEVMDMNEIE [RPT5]	2.86 ± 0.093	2.19 ± 0.063	1.91 ± 0.077	2.32 ± 0.069
DFLGVASTGSGKTLAFV [PRP28]	3.42 ± 0.26	3.05 ± 0.22	2.92 ± 0.22	3.31 ± 0.061
MASRVDETTVPSYYYYV [ROX3]	1.48 ± 0.07	2.24 ± 0.05	1.94 ± 0.096	1.94 ± 0.069
VDDAIELALKTLSKTTD [PRE9]	2.43 ± 0.066	1.92 ± 0.063	2.42 ± 0.074	2.64 ± 0.057
PERFMVFQLPTRLPAFE [RPC53]	2.31 ± 0.065	2.75 ± 0.054	2.54 ± 0.089	2.79 ± 0.058
ETERLISQSQLGKFKNI [SIN4]	3.09 ± 0.13			
LYVPRKCSATNRIIKAD [RPS21A]	3.08 ± 0.27	1.83 ± 0.2	2.13 ± 0.12	2.19 ± 0.15
WMLSICVEWRLPEIAKE [YJR042W/NUP85]	1.2 ± 0.08	1.37 ± 0.05	1.51 ± 0.11	1.67 ± 0.061
PLDTIETELPTLSLPDS [SMC1]	3 ± 0.12	2.92 ± 0.12	2.92 ± 0.083	3.09 ± 0.089
SNYSRTMTISHLLLGFQ [YJL039C/NUP192]	1.82 ± 0.05	1.69 ± 0.044	1.59 ± 0.058	2.1 ± 0.034
PNEHPGAKYVIRDSGDR [RPO21]	3.01 ± 0.084	3.1 ± 0.087	2.7 ± 0.15	3.03 ± 0.069
YSSILGNSFNKSSNDTI [YCG1]	2.5 ± 0.048	2.77 ± 0.042	2.62 ± 0.037	2.81 ± 0.049
KNKPELYQIDYLGTKVE [PRE1]	2.82 ± 0.091	2.95 ± 0.1	3.09 ± 0.064	3.16 ± 0.089
SSRLEFVKGISRDIKAL [YML103C/NUP188]	2.39 ± 0.081	1.81 ± 0.057	1.99 ± 0.085	1.62 ± 0.04
DSVEFIFQAKRNSNPEN [RPN10]	2.75 ± 0.087	2.73 ± 0.089	3.2 ± 0.12	2.69 ± 0.083
SSIQESLLSLVGHLSIL [ECM29]	2.01 ± 0.045	1.75 ± 0.043	1.83 ± 0.053	1.6 ± 0.025
SSNVQQPQQQLGDMENN [RTT102]	3.21 ± 0.19	3.29 ± 0.12	3.11 ± 0.088	3.21 ± 0.17
SGLNRAISTGNWSLKRF [RET1]	2.56 ± 0.07	2.57 ± 0.078	2.67 ± 0.087	2.41 ± 0.054
